Experiments:
trypsin = assay: Incubation with immobilized trypsin, SDS-PAGE (Example 14); assay type: in vitro ADME; settings: room temperature, 10 min to 2 hr, PBS pH 7.4, FIG. 25
Method: An experiment was performed to assess generation of the fragment upon incubation in the presence of trypsin. Columns were prepared to contain 100 μl immobilized Trypsin slurry, washed twice with PBS, loaded with SG-11 (SEQ ID NO:9) diluted in PBS, pH 7.4, then incubated at room temperature for varied times. To stop the reaction, each column was centrifuged to remove protein from the column, then analyzed on an SDS-PAGE gel using Coomassie Blue visualization.

[1] = Forced degradation under stress conditions (SEC-HPLC, LC/MS/MS) (Example 8); assay type: physicochemical; settings: for Aggregates (SEC-HPLC): 2 weeks
Method: SG-11 (SEQ ID NO:9) was also tested under a series of stress conditions shown in Table 8 below to further characterized the stability of recombinant, purified SG-11. Stressed samples were analyzed either by SEC-HPLC for the presence of aggregates and/or degradants. LC/MS/MS was performed for determination of levels of deamidation and oxidation.
For this analysis, SG-11 (SEQ ID NO:9) was present at a concentration of 1 mg/ml in PBS (50 mM sodium phosphate, 150 mM NaCl, 10% glycerol, pH 8.0), with the exception of tests under pH 4 and pH 9. For pH 4, SG-11 (SEQ ID NO:9) was prepared at a concentration of 1 mg/ml in sodium acetate buffer (50 mM sodium acetate, 150 mM NaCl, pH 4). For pH 9, SG-11 (SEQ ID NO:9) was prepared at a concentration of 1 mg/ml in CAPSO (3-cyclohexylamino-2-hydroxy-1-propanesulfonic acid) buffer (50 mM CAPSO, 150 mM NaCl, pH 9).
Three samples treated by incubation at 40° C. for two weeks, oxidation (H2O2) or high pH 9, respectively, were analyzed by LC/MS/MS for PTMs. […] 7.84% of N53 was deamidated without any treatment.
After reduction, free cysteines were artificially carbamidomethylated by iodoacetamide to block cysteine residues from oxidation in the assays.

[2] = Stability in fecal slurry, SDS-PAGE and Coomassie blue (Example 14); settings: 37° C., 10 min, 30 min, 1 hr, 2 hr; human fecal pellets in PBS; FIG. 24
[3] = Aggregation by analytical size exclusion chromatography (Example 9); assay type: physicochemical
Method: The stability of SG-11 (SEQ ID NO:9) was evaluated following the incubation at 37° C. for one week and at 4° C. for 3 weeks in Buffer C (100 mM sodium phosphate, pH 7.0, 0.5 M sorbitol). The stability was assessed by monitoring the aggregation formation with analytical size exclusion chromatography (SEC) equilibrated with Buffer D (100 mM sodium phosphate, pH 7.0, 10% glycerol). […] The cause of the aggregation was investigated as follows. There are two cysteine residues found in SG-11 at the positions 147 and 151 (relative to SEQ ID NO:7). […] As free sulfhydryl groups could cause aggregation by forming unpreferable intermolecular disulfide bonds, it was examined whether the presence of reducing agent, such as β-mercaptoethanol, could prevent the aggregation.

B1: SG-11 (SEQ ID NO:9): SG-11 (SEQ ID NO:3) with a FLAG-tag (DYKDDDDK) at the N-terminus (protein)
chain: MDYKDDDDKGSSHMLEGEESVVYVGKKGVIASLDVETLDQSYYDETELKSYVDAEVEDYTAEHGKNAVKVESLKVEDGVAKLKMKYKTPEDYTAFNGIELYQGKVVASLAAGYVYDGEFARVEEGKVVGAATKQDIYSEDDLKVAIIRANTDVKVDGEICYVSCQNVKLTGKDSVSIRDGYYLETGSVTASVDVTGQESVGTEQLSGTEQMEMTGEPVNADDTEQTEAAAGDGSFETDVYTFIVYK
modifications: N-terminal FLAG tag
Product on incubation with trypsin (SDS-PAGE) (trypsin): a predominant band is generated in the presence of trypsin
Aggregates (SEC-HPLC) ([1]; 4° C.): low level of aggregates
Aggregates (SEC-HPLC) ([1]; 37° C.): major aggregation occurred
Aggregation or degradation (SEC-HPLC) ([1]; mechanical stress): do not cause either protein aggregation or degradation
Aggregation or degradation (SEC-HPLC) ([1]; repeated freeze and thaw): do not cause either protein aggregation or degradation
Stability in fecal slurry (SDS-PAGE) [2]: generation of a predominant band with an apparent molecular weight of about 25 kDa
Aggregation formation (analytical SEC) ([3]; 4-days incubation at 37° C. in presence of 2.5% (v/v) mercaptoethanol, 50 mM sodium phosphate, 150 mM NaCl, 10% glycerol): Aggregation was greatly suppressed
Aggregation formation (analytical SEC) ([3]; 4° C. for 3 weeks in Buffer C (100 mM sodium phosphate, pH 7.0, 0.5 M sorbitol), vs freshly thawed protein): No noticeable change
Aggregation formation (analytical SEC) ([3]; 37° C. for one week in Buffer C (100 mM sodium phosphate, pH 7.0, 0.5 M sorbitol)): clearly showed aggregation peaks

Reference: patent US11505583B2, “Proteins for the treatment of epithelial barrier function disorders” (Second Genome, Inc., priority 2018, dated 2022)
